# Biological target: T1, HLA-B*08:01 class I complex (biotinylated heavy chain with beta2-microglobulin) (human)
# T1 construct: Conditional HLA class I complex loaded with a UV-labile peptide that is exchanged for the test peptide
# Assay: UV peptide exchange + HLA class I ELISA; % of Pos control peptide
# Protocol: The exchange efficiency between the peptide of interest and Pos was analyzed using an HLA class I ELISA.
# The UV control represented UV-irradiation of conditional HLA class I complex in the absence of a rescue peptide. […] The HLA class I ELISA is an enzyme immunoassay based on the detection of beta2-microglobulin (B2M) of (peptide-stabilized) HLA class I complexes. To this end streptavidin was bound onto polystyrene microtiter wells. […] Non-bound material was removed by washing. Subsequently, horseradish peroxidase (HRP)-conjugated antibody to human B2M was added. […] In the latter case B2M was removed during the washing step. After removal of non-bound HRP conjugate by washing, a substrate solution was added to the wells. A coloured product formed in proportion to the amount of intact HLA complex present in the samples. After the reaction was terminated by the addition of a stop solution, absorbance was measured in a microtiter plate reader.
row,Binder,exchange rate with Pos peptide [%]
1,RAKCKFSIL (Synthetic 9-mer) [P56 9-mer neoantigen peptide RAKCKFSIL (SPOP(F102C) missense)],38
2,IPVLTRWPL (Synthetic 9-mer) [P19 9-mer neoantigen peptide IPVLTRWPL (TMEM222-LOC644961 fusion)],14.5
3,NSKMALNSL (Synthetic 9-mer) [P35 9-mer neoantigen peptide NSKMALNSL (TMPRSS2-ERG fusion)],13.7
4,HVPKILSGK (Synthetic 9-mer) [P58 9-mer neoantigen peptide HVPKILSGK (AR (Q903H) missense)],5.3
5,QLIAMDSAI (Synthetic 9-mer) [P22 9-mer neoantigen peptide QLIAMDSAI (SLC45A3-ELK4 fusion)],3.9
6,GVLRRLLCR (Synthetic 9-mer) [P37 9-mer neoantigen peptide GVLRRLLCR (TSTD1-F11R fusion)],3.3
7,STRRAVRRM (Synthetic 9-mer) [P16 9-mer neoantigen peptide STRRAVRRM (MSMB-NCOA4 fusion)],6.2
8,YLRRQKRLK (Synthetic 9-mer) [P60 9-mer neoantigen peptide YLRRQKRLK (FOXA1.p.F266L missense)],10.2
9,RAVRRMNTF (Synthetic 9-mer) [P17 9-mer neoantigen peptide RAVRRMNTF (MSMB-NOCA4 fusion)],9
10,FLFLLLPLS (Synthetic 9-mer) [P87 9-mer neoantigen peptide FLFLLLPLS (AR-Intron splice variant)],3.1
11,FFKRAAEGF (Synthetic 9-mer) [P77 9-mer neoantigen peptide FFKRAAEGF (AR-V3 splice variant)],3.4
12,CYLGRQKRF (Synthetic 9-mer) [P61 9-mer neoantigen peptide CYLGRQKRF (FOXA1.p.R261G missense)],3.6
13,RVGNCKHLK (Synthetic 9-mer) [P82 9-mer neoantigen peptide RVGNCKHLK (AR-V7 splice variant)],1.4
14,LMAQRLLLR (Synthetic 9-mer) [P97 9-mer neoantigen peptide LMAQRLLLR (FOXRED2-TXN2 fusion)],2.7
15,NMVENGCYL (Synthetic 9-mer) [P59 9-mer neoantigen peptide NMVENGCYL (FOXA1 (F254V) missense)],5.5
16,CPMSRLRLA (Synthetic 9-mer) [P46 9-mer neoantigen peptide CPMSRLRLA (TP53 (R213D) frameshift)],14.5
17,LLERNSFEV (Synthetic 9-mer) [P73 9-mer neoantigen peptide LLERNSFEV (TP53 (G266E) missense)],2.6
18,IQYSCMGLM (Synthetic 9-mer) [P50 9-mer neoantigen peptide IQYSCMGLM (AR (W742C) missense)],4.7
19,FPVGAEGTF (Synthetic 9-mer) [P27 9-mer neoantigen peptide FPVGAEGTF (FAM126B-ORC2 fusion)],6.4
20,IVWWCPMSR (Synthetic 9-mer) [P98 9-mer neoantigen peptide IVWWCPMSR (TP53 (R213D) frameshift)],2.4

# From patent US20240139265A1 (published 2024)
